Test results published in the supplement of paper PMC9112550, “Optimization of the antimicrobial peptide Bac7 by deep mutational scanning” (BMC Biology, 2022).
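Note: peptides expressed intracellularly from a pBAD plasmid library in pooled LB shake-flask culture, induced with 0.3% L-arabinose, DNA abundance read by NGS, three biological replicates, DESeq2 with apeglm shrinkage.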

What follows are sequences tested on Escherichia coli TOP10 (assay: shrunken log2 fold change of peptide-encoding DNA abundance (4.5 h post-induction vs induction); higher = less antimicrobial activity (less host growth inhibition)). Conditions: time post-induction: 4.5 h; library: site-saturation at positions 5, 18, 19, 20.
For RRIRCRPPRLPRPRPRPTWLPRP, the “shrunken log2 fold change” value was -0.227. In the case of RRIRCRPPRLPRPRPRPIQEPRP, the “shrunken log2 fold change” value is reported as 0.0221. With RRIRDRPPRLPRPRPRPECLPRP the “shrunken log2 fold change” value was 0.0572. With RRIRDRPPRLPRPRPRPSANPRP the “shrunken log2 fold change” value was 0.119. For RRIRDRPPRLPRPRPRPYNWPRP, the “shrunken log2 fold change” value was -0.281. For RRIRQRPPRLPRPRPRPALLPRP, the “shrunken log2 fold change” value was -0.0269. For RRIRHRPPRLPRPRPRPQCWPRP, the “shrunken log2 fold change” value was -0.112. With RRIRIRPPRLPRPRPRPHVKPRP the “shrunken log2 fold change” value was -0.213. In the case of RRIRGRPPRLPRPRPRPHRMPRP, the “shrunken log2 fold change” value is reported as -0.101. For RRIRERPPRLPRPRPRPLNMPRP, the “shrunken log2 fold change” value was -0.528. In the case of RRIRWRPPRLPRPRPRPAWQPRP, the “shrunken log2 fold change” value is reported as 0.427. With RRIRRRPPRLPRPRPRPPPKPRP the “shrunken log2 fold change” value was 0.995. For RRIRKRPPRLPRPRPRPPVAPRP, the “shrunken log2 fold change” value was 0.974. RRIRRRPPRLPRPRPRPQTSPRP was tested, and the “shrunken log2 fold change” value was 0.24. RRIRPRPPRLPRPRPRPMLLPRP was tested, and the “shrunken log2 fold change” value was 0.0229. For RRIRYRPPRLPRPRPRPTQWPRP, the “shrunken log2 fold change” value was 0.413. For RRIRNRPPRLPRPRPRPKTHPRP, the “shrunken log2 fold change” value was -0.298. With RRIRHRPPRLPRPRPRPNPKPRP the “shrunken log2 fold change” value was -0.0127. For RRIRGRPPRLPRPRPRPRWCPRP, the “shrunken log2 fold change” value was 0.351. With RRIRARPPRLPRPRPRPHWLPRP the “shrunken log2 fold change” value was 0.339. For RRIRSRPPRLPRPRPRPYKFPRP, the “shrunken log2 fold change” value was -0.15. For RRIRFRPPRLPRPRPRPGFSPRP, the “shrunken log2 fold change” value was -0.407. RRIRIRPPRLPRPRPRPQWVPRP was tested, and the “shrunken log2 fold change” value was -0.023. For RRIRKRPPRLPRPRPRPVVRPRP, the “shrunken log2 fold change” value was -0.0886. For RRIRYRPPRLPRPRPRPKLHPRP, the “shrunken log2 fold change” value was -0.431. With RRIRKRPPRLPRPRPRPFHMPRP the “shrunken log2 fold change” value was -0.424. With RRIRNRPPRLPRPRPRPEKIPRP the “shrunken log2 fold change” value was -0.0207. RRIRHRPPRLPRPRPRPCSIPRP was tested, and the “shrunken log2 fold change” value was -0.0189. With RRIRMRPPRLPRPRPRPQYTPRP the “shrunken log2 fold change” value was -0.0579. With RRIRERPPRLPRPRPRPIRCPRP the “shrunken log2 fold change” value was 0.0648. In the case of RRIRQRPPRLPRPRPRPQQPPRP, the “shrunken log2 fold change” value is reported as 0.00789. RRIRHRPPRLPRPRPRPLDIPRP was tested, and the “shrunken log2 fold change” value was -0.105. In the case of RRIRPRPPRLPRPRPRPKLWPRP, the “shrunken log2 fold change” value is reported as 0.683. With RRIRWRPPRLPRPRPRPYCHPRP the “shrunken log2 fold change” value was -0.437. With RRIRWRPPRLPRPRPRPCTNPRP the “shrunken log2 fold change” value was -0.0757. With RRIRFRPPRLPRPRPRPRWVPRP the “shrunken log2 fold change” value was 0.191. In the case of RRIRHRPPRLPRPRPRPQHYPRP, the “shrunken log2 fold change” value is reported as -0.483. RRIRKRPPRLPRPRPRPTDNPRP was tested, and the “shrunken log2 fold change” value was 0.219. With RRIRGRPPRLPRPRPRPCTWPRP the “shrunken log2 fold change” value was 0.228. In the case of RRIRVRPPRLPRPRPRPSLYPRP, the “shrunken log2 fold change” value is reported as -0.62. RRIRYRPPRLPRPRPRPTPFPRP was tested, and the “shrunken log2 fold change” value was -0.27. In the case of RRIRTRPPRLPRPRPRPNHEPRP, the “shrunken log2 fold change” value is reported as -0.143. In the case of RRIRIRPPRLPRPRPRPQADPRP, the “shrunken log2 fold change” value is reported as -0.0941. In the case of RRIRMRPPRLPRPRPRPHGAPRP, the “shrunken log2 fold change” value is reported as 0.0098. RRIRHRPPRLPRPRPRPMQPPRP was tested, and the “shrunken log2 fold change” value was 0.172. In the case of RRIRMRPPRLPRPRPRPETHPRP, the “shrunken log2 fold change” value is reported as 2.51. For RRIRPRPPRLPRPRPRPFQHPRP, the “shrunken log2 fold change” value was -0.00804. With RRIRQRPPRLPRPRPRPVTEPRP the “shrunken log2 fold change” value was -0.35. RRIRNRPPRLPRPRPRPVLFPRP was tested, and the “shrunken log2 fold change” value was -0.326. In the case of RRIRSRPPRLPRPRPRPLKQPRP, the “shrunken log2 fold change” value is reported as -0.0432.
